Results taken from publication PMC6558041.

Tests used:
[1] = target: hemolysin B (HlyB), ABC transporter of the HlyA type I secretion system (E. coli) (UniProt P08716)
[2] = target: hemolysin B (HlyB), ABC transporter of the HlyA type I secretion system (E. coli) (UniProt P08716); remark: listed apart in the source
[3] = target: HlyB∆CLD, truncated HlyB lacking the N-terminal C39 peptidase-like domain (E. coli)

Chain of UniProt P08716 (P08716 whole entry, the tested form may be a part): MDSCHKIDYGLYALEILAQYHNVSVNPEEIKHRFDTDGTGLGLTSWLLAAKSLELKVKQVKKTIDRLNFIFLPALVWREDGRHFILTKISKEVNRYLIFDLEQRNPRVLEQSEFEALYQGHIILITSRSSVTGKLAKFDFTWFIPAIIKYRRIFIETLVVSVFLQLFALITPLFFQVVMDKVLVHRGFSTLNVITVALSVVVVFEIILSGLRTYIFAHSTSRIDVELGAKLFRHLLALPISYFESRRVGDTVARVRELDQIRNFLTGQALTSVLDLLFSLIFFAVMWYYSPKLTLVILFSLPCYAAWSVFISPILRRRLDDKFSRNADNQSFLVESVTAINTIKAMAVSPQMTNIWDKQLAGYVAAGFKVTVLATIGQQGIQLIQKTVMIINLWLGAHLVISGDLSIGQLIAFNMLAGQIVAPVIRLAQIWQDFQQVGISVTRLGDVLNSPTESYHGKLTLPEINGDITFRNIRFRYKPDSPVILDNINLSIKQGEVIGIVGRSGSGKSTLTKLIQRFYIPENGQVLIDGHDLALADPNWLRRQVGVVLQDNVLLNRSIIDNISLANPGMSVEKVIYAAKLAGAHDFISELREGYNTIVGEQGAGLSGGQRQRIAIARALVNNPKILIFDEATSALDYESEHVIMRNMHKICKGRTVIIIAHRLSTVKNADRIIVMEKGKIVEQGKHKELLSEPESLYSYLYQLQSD

## proHlyA, full-length hemolytically inactive (non-acylated) precursor form of hemolysin A (from UniProt P08715 1-1024) (natural protein)
[1]
  inhibition of the basal ATPase activity of HlyB reconstituted with LPC/DOPC mixtures or LPC alone in saposin-A nanoparticles, with 10 µM unfolded proHlyA: 40%
[2]
  inhibition of the basal ATPase activity of HlyB in LPC-saposin-A nanoparticles by unfolded proHlyA, 0-10 µM, 4 mM ATP, 25 °C: 30%
  stimulation of ATP hydrolysis of HlyB in LPC-saposin-A nanoparticles by folded proHlyA (Ca2+), 0-10 µM, 4 mM ATP, 25 °C: 60%
[3]
  stimulation of the basal ATPase activity of HlyB∆CLD in LPC-saposin-A nanoparticles by folded proHlyA, 0-10 µM (Michaelis-Menten fit with substrate inhibition): 2 fold
  stimulation of the basal ATPase activity of HlyB∆CLD in LPC-saposin-A nanoparticles by unfolded proHlyA, 0-10 µM, with strong substrate inhibition at higher concentrations: 4 fold
